From patent publication US20250154231A1
Like-named read-outs stand apart in the source and are kept apart here.

How the values were obtained:
Test in all cases: cell-based or functional assay
[1] = biological target: SARS-CoV-2 Gamma spike (S) protein (SARS-CoV-2) (UniProt P0DTC2)
[2] = biological target: SARS-CoV-2 spike (S) protein, Omicron BA.2 (SARS-CoV-2) (UniProt P0DTC2)
[3] = biological target: SARS-CoV-2 Alpha spike (S) protein (SARS-CoV-2) (UniProt P0DTC2)
[4] = biological target: SARS-CoV-2 spike (S) protein, Omicron BA.2.75 (SARS-CoV-2) (UniProt P0DTC2)
[5] = biological target: SARS-CoV-2 Gamma (P.1) spike (S) protein (SARS-CoV-2) (UniProt P0DTC2)
[6] = biological target: SARS-CoV-2 Delta spike (S) protein (SARS-CoV-2) (UniProt P0DTC2)
[7] = biological target: SARS-CoV-2 Omicron BA.1 spike (S) protein of the live isolate (SARS-CoV-2) (UniProt P0DTC2)
[8] = biological target: SARS-CoV-2 Omicron BA.1 spike (S) protein of the pseudovirus (SARS-CoV-2) (UniProt P0DTC2)
[9] = biological target: SARS-CoV-2 Omicron BA.2 spike (S) protein (SARS-CoV-2) (UniProt P0DTC2)
[10] = biological target: SARS-CoV-2 Beta spike (S) protein (SARS-CoV-2) (UniProt P0DTC2)
[11] = biological target: SARS-CoV-2 Omicron BA.4/5 spike (S) protein (SARS-CoV-2) (UniProt P0DTC2)
[12] = biological target: SARS-CoV-2 spike (S) protein, Victoria strain (SARS-CoV-2) (UniProt P0DTC2)
[13] = biological target: SARS-CoV-2 Omicron (BA.1) spike (S) protein, live virus isolate (SARS-CoV-2) (UniProt P0DTC2)
[14] = biological target: SARS-CoV-2 Victoria spike (S) protein (SARS-CoV-2) (UniProt P0DTC2)
[15] = biological target: SARS-CoV-2 Omicron BA.3 spike (S) protein (SARS-CoV-2) (UniProt P0DTC2)
[16] = biological target: SARS-CoV-2 spike (S) protein, Omicron BA.3 (SARS-CoV-2) (UniProt P0DTC2)
[17] = biological target: SARS-CoV-2 spike (S) protein, Omicron BA.4/5 (SARS-CoV-2) (UniProt P0DTC2)
[18] = biological target: SARS-CoV-2 Omicron BA.1 spike (S) protein, pseudovirus construct (SARS-CoV-2) (UniProt P0DTC2)
[19] = biological target: SARS-CoV-2 Omicron BA.1.1 spike (S) protein, pseudovirus construct (SARS-CoV-2) (UniProt P0DTC2)
[20] = biological target: SARS-CoV-2 Omicron BA.2 spike (S) protein, pseudovirus construct (SARS-CoV-2) (UniProt P0DTC2)
[21] = biological target: SARS-CoV-2 spike (S) protein, Omicron BA.1.1 (SARS-CoV-2) (UniProt P0DTC2)
[22] = biological target: SARS-CoV-2 Alpha (B.1.1.7) spike (S) protein (SARS-CoV-2) (UniProt P0DTC2)
[23] = biological target: SARS-CoV-2 Omicron BA.3 spike (S) protein, pseudovirus construct (SARS-CoV-2) (UniProt P0DTC2)
[24] = biological target: SARS-CoV-2 Omicron BA.1.1 spike (S) protein (SARS-CoV-2) (UniProt P0DTC2)
[25] = biological target: SARS-CoV-2 spike (S) protein, Omicron BA.1 (SARS-CoV-2) (UniProt P0DTC2)
[26] = biological target: SARS-CoV-2 Beta (B.1.351) spike (S) protein (SARS-CoV-2) (UniProt P0DTC2)
[27] = biological target: SARS-CoV-2 spike (S) protein, Omicron BA.2 (SARS-CoV-2) (UniProt P0DTC2); remark: listed apart in the source
[28] = biological target: SARS-CoV-2 spike (S) protein, Omicron BA.2.75 (SARS-CoV-2) (UniProt P0DTC2); remark: listed apart in the source
[29] = biological target: SARS-CoV-2 spike (S) protein, Omicron BA.2.75.2 (SARS-CoV-2) (UniProt P0DTC2)
[30] = biological target: SARS-CoV-2 spike (S) protein, Omicron BJ.1 (SARS-CoV-2) (UniProt P0DTC2)
[31] = biological target: SARS-CoV-2 spike (S) protein, Victoria strain (SARS-CoV-2) (UniProt P0DTC2); remark: listed apart in the source
[32] = biological target: SARS-CoV-2 spike (S) protein, Omicron BA.4.6 (SARS-CoV-2) (UniProt P0DTC2)
[33] = biological target: SARS-CoV-2 spike (S) protein, Omicron BA.4/5 (SARS-CoV-2) (UniProt P0DTC2); remark: listed apart in the source
[34] = biological target: SARS-CoV-2 spike (S) protein, Omicron BA.2.3.20 (SARS-CoV-2) (UniProt P0DTC2)
[35] = biological target: SARS-CoV-2 spike (S) protein, Omicron BA.2 (SARS-CoV-2) (UniProt P0DTC2); remark: listed apart in the source
[36] = biological target: SARS-CoV-2 spike (S) protein, Omicron BA.2.75 (SARS-CoV-2) (UniProt P0DTC2); remark: listed apart in the source
[37] = biological target: SARS-CoV-2 spike (S) protein, Omicron BA.4.6 (SARS-CoV-2) (UniProt P0DTC2); remark: listed apart in the source
[38] = biological target: SARS-CoV-2 spike (S) protein, Omicron BA.2.75 (SARS-CoV-2) (UniProt P0DTC2); remark: listed apart in the source

Substance: Omi-03 (antibody)
- IC50, authentic virus neutralization [1]: 0.004 µg/mL
- pseudovirus neutralisation IC50 [2]: 0.008 µg/mL
- IC50, authentic virus neutralization [3]: 0.012 µg/mL
- pseudovirus neutralisation IC50 [4]: 0.017 µg/mL
- Authentic virus-IC50 [5]: 0.004 µg/mL
- Authentic virus-IC50 [6]: 0.004 µg/mL
- IC50, authentic virus neutralization [6]: 0.004 µg/mL
- IC50, authentic virus neutralization [7]: 0.009 µg/mL
- IC50, pseudovirus neutralization [8]: 0.005 µg/mL
- IC50, authentic virus neutralization [9]: 0.028 µg/mL
- IC50, pseudovirus neutralization [9]: 0.008 µg/mL
- IC50, authentic virus neutralization [10]: 0.009 µg/mL
- IC50, pseudovirus neutralization [11]: 0.017 µg/mL
- pseudovirus neutralisation IC50 [12]: 0.003 µg/mL
- Authentic virus-IC50 [13]: 0.009 µg/mL
- Authentic virus-IC50 [14]: 0.007 µg/mL
- IC50, authentic virus neutralization [14]: 0.007 µg/mL
- IC50, pseudovirus neutralization [14]: 0.003 µg/mL
- Pseudovirus - IC50 [14]: 0.003 µg/mL
- IC50, pseudovirus neutralization [15]: 0.022 µg/mL
- pseudovirus neutralisation IC50 [16]: 0.022 µg/mL
- pseudovirus neutralisation IC50 [17]: 0.017 µg/mL
- Pseudovirus - IC50 [18]: 0.005 µg/mL
- Pseudovirus - IC50 [19]: 0.003 µg/mL
- Pseudovirus - IC50 [20]: 0.008 µg/mL
- pseudovirus neutralisation IC50 [21]: 0.003 µg/mL
- Authentic virus-IC50 [22]: 0.012 µg/mL
- Pseudovirus - IC50 [23]: 0.022 µg/mL
- IC50, authentic virus neutralization [24]: 0.015 µg/mL
- IC50, pseudovirus neutralization [24]: 0.003 µg/mL
- pseudovirus neutralisation IC50 [25]: 0.005 µg/mL
- Authentic virus-IC50 [26]: 0.009 µg/mL
- IC50, pseudoviral neutralization [27]: 0.008 µg/mL
- IC50, pseudoviral neutralization [28]: 0.017 µg/mL
- IC50, pseudoviral neutralization [29]: 0.546 µg/mL
- IC50, pseudoviral neutralization [30]: 0.014 µg/mL
- IC50, pseudoviral neutralization [31]: 0.003 µg/mL
- IC50, pseudoviral neutralization [32]: 0.006 µg/mL
- IC50, pseudoviral neutralization [33]: 0.017 µg/mL
- IC50, pseudoviral neutralization [34]: 0.02 µg/mL
- pseudovirus neutralisation IC50 [35]: 0.008 µg/mL
- pseudovirus neutralisation IC50 [36]: 0.017 µg/mL

Substance: REGN10933 (antibody)
- IC50, authentic virus neutralization [1]: 6.18 µg/mL
- IC50, pseudoviral neutralization [2]: > 10 µg/mL
- pseudovirus neutralisation IC50 [2]: > 10 µg/mL
- IC50, authentic virus neutralization [3]: 0.014 µg/mL
- IC50, authentic virus neutralization [6]: 0.003 µg/mL
- IC50, authentic virus neutralization [7]: > 10 µg/mL
- IC50, authentic virus neutralization [9]: > 10 µg/mL
- IC50, authentic virus neutralization [10]: 3.28 µg/mL
- IC50, pseudoviral neutralization [12]: 0.001 µg/mL
- pseudovirus neutralisation IC50 [12]: 0.001 µg/mL
- IC50, pseudoviral neutralization [37]: > 10 µg/mL
- IC50, authentic virus neutralization [14]: 0.004 µg/mL
- IC50, pseudoviral neutralization [16]: > 10 µg/mL
- pseudovirus neutralisation IC50 [16]: > 10 µg/mL
- IC50, pseudoviral neutralization [17]: > 10 µg/mL
- pseudovirus neutralisation IC50 [17]: > 10 µg/mL
- IC50, pseudoviral neutralization [21]: > 10 µg/mL
- pseudovirus neutralisation IC50 [21]: > 10 µg/mL
- IC50, authentic virus neutralization [24]: > 10 µg/mL
- IC50, pseudoviral neutralization [25]: > 10 µg/mL
- pseudovirus neutralisation IC50 [25]: > 10 µg/mL
- IC50, pseudoviral neutralization [27]: > 10 µg/mL
- IC50, pseudoviral neutralization [28]: > 10 µg/mL
- IC50, pseudoviral neutralization [29]: > 10 µg/mL
- IC50, pseudoviral neutralization [30]: > 10 µg/mL
- IC50, pseudoviral neutralization [31]: 0.001 µg/mL
- IC50, pseudoviral neutralization [32]: > 10 µg/mL
- IC50, pseudoviral neutralization [33]: > 10 µg/mL
- IC50, pseudoviral neutralization [34]: 8.62 µg/mL
- pseudovirus neutralisation IC50 [38]: > 10 µg/mL

Substance: REGN10987 (antibody)
- IC50, authentic virus neutralization [1]: 0.013 µg/mL
- IC50, pseudoviral neutralization [2]: 0.616 µg/mL
- pseudovirus neutralisation IC50 [2]: 0.616 µg/mL
- IC50, authentic virus neutralization [3]: 0.028 µg/mL
- IC50, authentic virus neutralization [6]: 0.017 µg/mL
- IC50, authentic virus neutralization [7]: > 10 µg/mL
- IC50, authentic virus neutralization [9]: 1.85 µg/mL
- IC50, authentic virus neutralization [10]: 0.007 µg/mL
- IC50, pseudoviral neutralization [12]: 0.002 µg/mL
- pseudovirus neutralisation IC50 [12]: 0.002 µg/mL
- IC50, pseudoviral neutralization [37]: > 10 µg/mL
- IC50, authentic virus neutralization [14]: 0.032 µg/mL
- IC50, pseudoviral neutralization [16]: > 10 µg/mL
- pseudovirus neutralisation IC50 [16]: > 10 µg/mL
- IC50, pseudoviral neutralization [17]: > 10 µg/mL
- pseudovirus neutralisation IC50 [17]: > 10 µg/mL
- IC50, pseudoviral neutralization [21]: > 10 µg/mL
- pseudovirus neutralisation IC50 [21]: > 10 µg/mL
- IC50, authentic virus neutralization [24]: > 10 µg/mL
- IC50, pseudoviral neutralization [25]: > 10 µg/mL
- pseudovirus neutralisation IC50 [25]: > 10 µg/mL
- IC50, pseudoviral neutralization [27]: 0.615 µg/mL
- IC50, pseudoviral neutralization [28]: > 10 µg/mL
- IC50, pseudoviral neutralization [29]: > 10 µg/mL
- IC50, pseudoviral neutralization [30]: > 10 µg/mL
- IC50, pseudoviral neutralization [31]: 0.002 µg/mL
- IC50, pseudoviral neutralization [32]: > 10 µg/mL
- IC50, pseudoviral neutralization [33]: > 10 µg/mL
- IC50, pseudoviral neutralization [34]: > 10 µg/mL
- pseudovirus neutralisation IC50 [38]: > 10 µg/mL
